In paper PMC11976907 (Nature Communications, 2025):

Target: T1, human TEX10 (43-929), His6-MBP fusion (human, UniProt Q9NXF1 43-929)
T1 sequence (looked up): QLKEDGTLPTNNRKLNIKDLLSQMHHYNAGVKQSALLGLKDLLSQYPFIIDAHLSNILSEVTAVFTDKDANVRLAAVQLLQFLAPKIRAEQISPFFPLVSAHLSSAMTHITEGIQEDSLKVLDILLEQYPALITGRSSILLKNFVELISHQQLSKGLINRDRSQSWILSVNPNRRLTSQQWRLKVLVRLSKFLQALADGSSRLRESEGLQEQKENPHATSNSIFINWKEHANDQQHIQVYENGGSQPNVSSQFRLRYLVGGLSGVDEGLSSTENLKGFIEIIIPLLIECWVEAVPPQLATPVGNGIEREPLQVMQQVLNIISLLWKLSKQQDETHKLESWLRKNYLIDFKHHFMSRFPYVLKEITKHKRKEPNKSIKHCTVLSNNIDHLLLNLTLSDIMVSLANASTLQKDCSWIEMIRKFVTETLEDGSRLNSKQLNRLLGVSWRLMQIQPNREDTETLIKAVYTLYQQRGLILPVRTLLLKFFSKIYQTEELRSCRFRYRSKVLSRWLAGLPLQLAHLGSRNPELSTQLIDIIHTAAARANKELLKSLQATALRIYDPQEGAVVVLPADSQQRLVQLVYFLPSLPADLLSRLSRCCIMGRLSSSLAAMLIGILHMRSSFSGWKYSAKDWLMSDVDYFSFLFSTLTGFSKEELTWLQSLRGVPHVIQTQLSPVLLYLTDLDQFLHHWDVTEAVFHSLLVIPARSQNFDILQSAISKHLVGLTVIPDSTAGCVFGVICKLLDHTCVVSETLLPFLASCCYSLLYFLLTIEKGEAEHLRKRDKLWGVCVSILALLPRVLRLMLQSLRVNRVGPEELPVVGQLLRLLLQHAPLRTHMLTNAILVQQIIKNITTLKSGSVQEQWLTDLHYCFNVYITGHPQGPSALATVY
Test: cryo-EM structure

binding result: binds
B1: human PELP1 (residues 1-642, Rix1 domain) (domain or fragment)
chain: not shown
